Test in all cases: peptide library pulldown on immobilized Nb, LC-MS of supernatant; ratio vs GFP-Nb control (1 = not captured, 0 = captured)
Assay [1] concerns the target T1, BC2T Q11A library peptide (human).
T1 peptide: Ac-PDRKAAVSHWAQ-NH2
The gist of the method: (§1)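 Unbound peptide left in supernatant after 1 h pulldown in PBS/0.01% CHAPS measured by reversed-phase LC-MS (8–30% eluent B gradient, 20 min).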

Assay [2] concerns the target T2, BC2T Q11R library peptide (human).
T2 peptide: Ac-PDRKAAVSHWRQ-NH2
The gist of the method: as §1

In assay [3] the target is T3, BC2T S8R library peptide (human).
T3 construct: also called BC2TS8X: R
T3 peptide: Ac-PDRKAAVRHWQQ-NH2
The gist of the method: as §1

Assay [4] has as its target T4, BC2T Q11H library peptide (human).
T4 peptide: Ac-PDRKAAVSHWHQ-NH2
The gist of the method: as §1

The target in assay [5] is T5, BC2T W10G library peptide (human).
T5 construct: also called BC2TW10X: G
T5 peptide: Ac-PDRKAAVSHGQQ-NH2
In a few lines:
as §1

Assay [6] deals with T6, BC2T Q12A library peptide (human).
T6 peptide: Ac-PDRKAAVSHWQA-NH2
In a few lines:
as §1

Assay [7] has as its target T7, BC2T Q11S library peptide (human).
T7 peptide: Ac-PDRKAAVSHWSQ-NH2
The gist of the method: as §1

The target of assay [8] is T8, BC2T H9D library peptide (human).
T8 peptide: Ac-PDRKAAVSDWQQ-NH2
The gist of the method: as §1

In assay [9] the target is T9, BC2T H9(I/L) library peptide, version 1 (N-terminal acetyl, C-terminal amide).
T9 construct: Ile and Leu versions are isobaric; two versions resolved but not assigned; also called I/L1
In a few lines:
as §1

For assay [10], the target named is T10, BC2T Q11(I/L) library peptide, version 2 (N-terminal acetyl, C-terminal amide).
T10 construct: Ile and Leu versions are isobaric; two versions resolved but not assigned; also called I/L2
In a few lines:
as §1

In assay [11] the target is T11, BC2T Q11W library peptide (human).
T11 peptide: Ac-PDRKAAVSHWWQ-NH2
The gist of the method: as §1

Assay [12] concerns the target T12, BC2T Q12D library peptide (human).
T12 peptide: Ac-PDRKAAVSHWQD-NH2
In a few lines:
as §1

Assay [13] addresses T13, BC2T H9P library peptide (human).
T13 peptide: Ac-PDRKAAVSPWQQ-NH2
The gist of the method: as §1

In assay [14] the target is T14, BC2T H9S library peptide (human).
T14 peptide: Ac-PDRKAAVSSWQQ-NH2
In a few lines:
as §1

The target of assay [15] is T15, BC2T S8K library peptide (human).
T15 construct: also called BC2TS8X: K
T15 peptide: Ac-PDRKAAVKHWQQ-NH2
In a few lines: as §1

In assay [16] the target is T16, BC2T W10P library peptide (human).
T16 construct: also called BC2TW10X: P
T16 peptide: Ac-PDRKAAVSHPQQ-NH2
The gist of the method: as §1

Assay [17] addresses T17, BC2T W10M library peptide (human).
T17 construct: also called BC2TW10X: M
T17 peptide: Ac-PDRKAAVSHMQQ-NH2
In a few lines:
as §1

The target of assay [18] is T18, BC2T W10V library peptide (human).
T18 construct: also called BC2TW10X: V
T18 peptide: Ac-PDRKAAVSHVQQ-NH2
In a few lines:
as §1

Assay [19] has as its target T19, BC2T Q12(I/L) library peptide, version 2 (N-terminal acetyl, C-terminal amide).
T19 construct: Ile and Leu versions are isobaric; two versions resolved but not assigned; also called I/L2
In a few lines: as §1

The target in assay [20] is T20, BC2T S8N library peptide (human).
T20 construct: also called BC2TS8X: N
T20 peptide: Ac-PDRKAAVNHWQQ-NH2
In a few lines:
as §1

The record followed here is patent publication US20170137467A1 (CHROMOTEK, published 2017).

B1: BC2-Nb(R106E) (VHH)
VHH: QVQLVESGGGLVQPGGSLTLSCTASGFTLDHYDIGWFRQAPGKEREGVSCINNSDDDTYYADSVKGRFTIFMDNAKDTVYLQMNSLKPEDTAIYYCAEARGCKRGEYEYDFWGQGTQVTVSS
notes: Headlock mutant; immobilized on beads in the library pulldown
For B1, the ratio was found to be 0.3 in assay [1]; 0.1 in assay [2]; 0.9 in [3]; 0.2 in assay [4]; 1.2 in [5]; 0.1 in assay [6]. For the same molecule, the ratio came to 0.2 in assay [7]; 0.4 in assay [8]; 0.4 in assay [9]; 0.4 in assay [10]; 0.1 in assay [11]; 0.8 in assay [12]. Further, the ratio turned out to be 0.9 in [13]; 0.4 in assay [14]; 0.9 in assay [15]; 1.1 in assay [16]; 1.1 in assay [17]; 1 in [18]. The ratio in assay [19] stood at 0.1; in [20] it was 0.5.
